Results published in publication PMC11646347.
One block for each molecule: values may come before it.

Experiments:
streptavidin = streptavidin (UniProt P22629); assay: native MS; native CZE online with ESI and a Q-Exactive UHMR Orbitrap; mixture of standard proteins and protein complexes; background electrolyte 25 mM ammonium acetate pH~7.0, sheath buffer 10 mM ammonium acetate pH~7.0; original sample (about 15 ng consumed) and a 50-fold dilution (0.1 ng CRP loaded)
[1] = biological target: T1, C-reactive protein, P02741; assay: as above; conditions: remark: other sources report otherwise
T1 chain: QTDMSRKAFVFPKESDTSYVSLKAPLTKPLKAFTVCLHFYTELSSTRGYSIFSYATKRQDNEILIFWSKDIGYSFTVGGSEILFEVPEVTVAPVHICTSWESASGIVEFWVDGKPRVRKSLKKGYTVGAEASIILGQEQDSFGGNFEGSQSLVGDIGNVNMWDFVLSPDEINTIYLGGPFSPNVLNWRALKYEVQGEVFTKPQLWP

stoichiometry N (streptavidin): 4
Molecule: streptavidin (from UniProt P22629 25-183) (natural protein)

stoichiometry N [1]: 5
B1: C-reactive protein, P02741 19-224 (natural protein)
chain: T1 chain
